Here are results for two molecules from US20260240908A1 (FRED HUTCHINSON CANCER CENTER, published 2026).

Assay [1] deals with T1, PD-1 on the cell surface (Molt-4 cells; KG PD-1 cells) (UniProt Q15116 25-288, limits assumed).
T1 construct: whole, on cells; Molt-4 is a human acute lymphoblastic leukemia line; also called PD-1-expressing Molt 4 cells; K562 GFP (KG) PD-1 cells
The assay can be described thus: flow cytometry of detectable cell surface PD-1 on Molt-4 cells that co-express the CAR (masking in cis).

Assay [2] deals with T2, PE- or biotin-conjugated human PD-1 Fc fusion protein (Acrobiosystems) (human, UniProt Q15116 25-167, limits assumed, PE- or biotin-conjugated).
T2 construct: Bought reagent (Acrobiosystems); also called PD-1-Fc-PE; PD-1 Fc chimera; not shown: Fc part of the bought fusion protein
T2 sequence (Q15116 25-167 limits assumed): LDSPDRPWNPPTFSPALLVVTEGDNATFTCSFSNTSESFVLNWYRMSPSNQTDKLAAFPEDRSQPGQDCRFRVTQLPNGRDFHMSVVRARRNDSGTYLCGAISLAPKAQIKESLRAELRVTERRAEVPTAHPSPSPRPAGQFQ
The assay can be described thus: flow cytometry, PD-1 Fc staining of transduced Jurkat Nur77-NeonGreen cells. From the text:
The biotin-conjugated PD-1-Fc protein was counterstained with BV421-conjugated Streptavidin (Invitrogen).
The EGFRt-tag was detected as a surrogate marker for CAR expression for the six constructs (FIGS. 2A and 9). CARs directed against antigens expressed in T cells may at times lead to fratricide and hamper CAR T cell production.
Background: Flow cytometry measures light scatter and fluorescence of single cells or particles in a stream.

T1 sequence (Q15116 25-288 limits assumed): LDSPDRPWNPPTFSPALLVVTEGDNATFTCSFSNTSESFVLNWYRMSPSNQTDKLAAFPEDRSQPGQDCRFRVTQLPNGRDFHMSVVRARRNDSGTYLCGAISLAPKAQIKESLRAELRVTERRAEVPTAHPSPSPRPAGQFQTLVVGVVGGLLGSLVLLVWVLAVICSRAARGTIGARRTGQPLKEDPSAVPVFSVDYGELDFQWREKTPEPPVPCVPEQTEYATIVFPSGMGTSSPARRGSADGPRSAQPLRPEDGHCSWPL

B1: VH VL S anti-PD-1 CAR BD (binding-defective) (other)
chain: QVQLVQSGVEVKKPGASVKVSCKASGYTFANYFMYWVRQAPGQGLEWMGGIAPAAGGAAFNEKFKNRVTLTTDSSTTTAYMELKSLQFDDTAVYYCARADFAFDMGFDYWGQGTTVTVSSASTKGGGGGSGGGGSGGGGSEIVLTQSPATLSLSPGERATLSCRASKGVSTAGFSYLHWYQQKPGQAPRLLIFLASFLESGVPARFSGSGSGTDFTLTISSLEPEDFAVYYCQHARALPLTFGGGTKVEIKRTVAAPSVFIFPPSDEQLKSGTAESKYGPPCPPCPMFWVLVVVGGVLACYSLLVTVAFIIFWVKRGRKKLLYIFKQPFMRPVQTTQEEDGCSCRFPEEEEGGCELRVKFSRSADAPAYQQGQNQLYNELNLGRREEYDVLDKRRGRDPEMGGKPRRKNPQEGLYNELQKDKMAEAYSEIGMKGERRRGKGHDGLYQGLSTATKDTYDALHMQALPPR
notes: Residues 1-22 are the GM-CSF signal peptide, left out
For B1, the binding result in assay [1] and in assay [2] was “no binding” each time.

B2: VH VL S anti-PD-1 CAR BD ΔCD3ζ (other)
chain: QVQLVQSGVEVKKPGASVKVSCKASGYTFANYFMYWVRQAPGQGLEWMGGIAPAAGGAAFNEKFKNRVTLTTDSSTTTAYMELKSLQFDDTAVYYCARADFAFDMGFDYWGQGTTVTVSSASTKGGGGGSGGGGSGGGGSEIVLTQSPATLSLSPGERATLSCRASKGVSTAGFSYLHWYQQKPGQAPRLLIFLASFLESGVPARFSGSGSGTDFTLTISSLEPEDFAVYYCQHARALPLTFGGGTKVEIKRTVAAPSVFIFPPSDEQLKSGTAESKYGPPCPPCPMFWVLVVVGGVLACYSLLVTVAFIIFWVKRGRKKLLYIFKQPFMRPVQTTQEEDGCSCRFPEEEEGGCEL
notes: as for B1
For B2, the binding result in assay [1] and in assay [2] was “no binding” in each case.
